# Test results: paper PMC9692336
# Key:
# [1] = target: platelet glycoprotein receptor Ib (UniProt P07359)
# [2] = target: platelet glycoprotein receptor Ib (UniProt P07359); remark: listed apart in the source
substance,measurement,setting,value
von Willebrand factor in plasma (from UniProt P04275 764-2813) (natural protein),"VWF:RCo activity (ristocetin co-factor assay, aggregation of fixed platelets) in factor VIII-deficient plasmas after addition of polyP65 (2.5 and 7.1 µM)",[1],2 fold
same,VWF:RCo activity in factor VIII-deficient plasmas after addition of purified recombinant factor VIII,[2],4 fold
